# Data: IntAct's records for PubMed 23569223
# B1: Torsin-1A (Homo sapiens), O14656 (parent)
# chain: MKLGRAVLGLLLLAPSVVQAVEPISLGLALAGVLTGYIYPRLYCLFAECCGQKRSLSREALQKDLDDNLFGQHLAKKIILNAVFGFINNPKPKKPLTLSLHGWTGTGKNFVSKIIAENIYEGGLNSDYVHLFVATLHFPHASNITLYKDQLQLWIRGNVSACARSIFIFDEMDKMHAGLIDAIKPFLDYYDLVDGVSYQKAMFIFLSNAGAERITDVALDFWRSGKQREDIKLKDIEHALSVSVFNNKNSGFWHSSLIDRNLIDYFVPFLPLEYKHLKMCIRVEMQSRGYEIDEDIVSRVAEEMTFFPKEERVFSDKGCKTVFTKLDYYYDD
# Variants of: B1
# Details: with toip2_human TOR1AIP2, Q8NFQ8
row,Variant,effect of a mutation on the interaction
1,E171Q,with no effect

# Variants of: B1
# Details: with toip1_human TOR1AIP1, Q5JTV8
# Chain of toip1_human TOR1AIP1, Q5JTV8 (Q5JTV8 whole entry): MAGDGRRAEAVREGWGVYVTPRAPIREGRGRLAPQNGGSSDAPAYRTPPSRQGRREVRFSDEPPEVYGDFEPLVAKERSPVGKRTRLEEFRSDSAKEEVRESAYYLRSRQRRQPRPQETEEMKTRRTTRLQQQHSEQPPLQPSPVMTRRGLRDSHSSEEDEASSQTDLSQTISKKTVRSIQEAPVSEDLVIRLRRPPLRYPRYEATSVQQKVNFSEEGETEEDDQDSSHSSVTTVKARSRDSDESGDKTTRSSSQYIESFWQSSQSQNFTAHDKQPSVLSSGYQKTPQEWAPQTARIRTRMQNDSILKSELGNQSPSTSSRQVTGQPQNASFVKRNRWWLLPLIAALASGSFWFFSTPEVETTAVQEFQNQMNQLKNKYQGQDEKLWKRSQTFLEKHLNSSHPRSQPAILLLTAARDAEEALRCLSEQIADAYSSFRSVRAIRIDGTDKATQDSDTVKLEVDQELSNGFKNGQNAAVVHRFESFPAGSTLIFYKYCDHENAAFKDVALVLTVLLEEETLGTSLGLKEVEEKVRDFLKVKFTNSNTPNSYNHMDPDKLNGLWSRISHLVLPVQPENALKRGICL
row,Variant,effect of a mutation on the interaction
1,E171Q,with no effect
